Test results from patent publication US20180237756.

Experiments:
[1] = target: T1, TgoT DNA polymerase (V93Q D141A E143A A485L) (Thermococcus gorgonarius) (UniProt P56689); conditions: does not synthesise HNA much beyond six incorporations
T1 sequence: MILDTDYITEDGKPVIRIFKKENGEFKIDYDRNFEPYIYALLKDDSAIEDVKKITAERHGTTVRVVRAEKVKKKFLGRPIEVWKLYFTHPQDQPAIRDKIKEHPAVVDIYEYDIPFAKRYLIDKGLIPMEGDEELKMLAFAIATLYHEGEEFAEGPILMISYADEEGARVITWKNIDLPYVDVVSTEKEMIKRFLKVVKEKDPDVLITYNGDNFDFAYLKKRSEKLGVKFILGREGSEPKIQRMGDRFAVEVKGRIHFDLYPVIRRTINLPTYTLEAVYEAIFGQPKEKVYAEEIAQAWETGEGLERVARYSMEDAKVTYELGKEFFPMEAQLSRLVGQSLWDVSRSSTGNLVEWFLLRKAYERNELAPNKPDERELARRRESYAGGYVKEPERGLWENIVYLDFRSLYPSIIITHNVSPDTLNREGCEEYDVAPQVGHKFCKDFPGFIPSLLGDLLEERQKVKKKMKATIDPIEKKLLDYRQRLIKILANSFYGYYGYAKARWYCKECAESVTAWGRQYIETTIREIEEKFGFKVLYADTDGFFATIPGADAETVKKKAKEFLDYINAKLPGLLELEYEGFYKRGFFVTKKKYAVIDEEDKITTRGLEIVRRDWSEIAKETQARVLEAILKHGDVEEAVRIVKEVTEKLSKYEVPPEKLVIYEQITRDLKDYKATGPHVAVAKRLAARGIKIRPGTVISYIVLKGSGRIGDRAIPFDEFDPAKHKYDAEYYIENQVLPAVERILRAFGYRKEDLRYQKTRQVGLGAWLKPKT

[2] = test system: TAT (trans-activator of transcription) (HIV); assay: competition

Substance	activity (hNTP incorporations) [1]	IC50 ([2]; IC50 of HNA anti-TAR aptamer T5S8-7 (binds TAR RNA) displacing TAT from immobilized miniTAR, CI95 1.3-2.8 nM) [nM]	IC50 ([2]; IC50 of RNA anti-TAR aptamer R06 (binds TAR RNA) displacing TAT from immobilized miniTAR, CI95 166-675 nM) [nM]
E. coli tRNA supE gene primer-template	6	–	–
miniTAR RNA	–	1.9	313
